Substitutions are numbered along the chain they refer to.
T1: mouse FcγRII (mouse, UniProt P08101 30-210)
T1 construct: also called mFcγRII; mFcgRII
T1 sequence: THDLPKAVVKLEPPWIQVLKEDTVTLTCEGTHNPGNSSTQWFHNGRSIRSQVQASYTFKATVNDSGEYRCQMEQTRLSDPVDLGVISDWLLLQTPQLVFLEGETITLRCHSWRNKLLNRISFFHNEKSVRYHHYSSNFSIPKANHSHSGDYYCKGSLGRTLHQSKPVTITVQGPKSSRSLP

T2: mouse FcγRIII (mouse, UniProt P08508 31-215)
T2 construct: also called mFcγRIII; mFcgRIII
T2 chain: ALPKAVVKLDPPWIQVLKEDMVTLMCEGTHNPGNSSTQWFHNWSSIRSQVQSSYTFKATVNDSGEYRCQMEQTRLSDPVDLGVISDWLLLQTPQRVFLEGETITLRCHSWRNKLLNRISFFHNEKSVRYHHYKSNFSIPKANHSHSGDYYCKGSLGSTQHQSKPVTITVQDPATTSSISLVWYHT

T3: mouse FcγRII extracellular domain, C-terminally His-tagged (mouse, UniProt P08101 30-210)
T3 construct: the whole entry is named; also called mFcγRII; mFcgRII
T3 sequence: T1 sequence

T4: mouse FcγRIII extracellular domain, C-terminally His-tagged (mouse, UniProt P08508 31-215)
T4 construct: the whole entry is named; also called mFcγRIII; mFcgRIII
T4 chain: T2 chain

B1: H237-MB764/MRAL-k0 (antibody, mouse IgG1, kappa)
heavy: QVQLQESGPGLVKPSETLSLTCAVSGHSISHDHAWSWVRQPPGEGLEWIGFISYSGITNYNPSLQGRVTISRDNSKNTLYLQMNSLRAEDTAVYYCARSLARTTAMDYWGEGTLVTVSSAKTTPPSVYPLAPGSAAQTNSMVTLGCLVKGYFPEPVTVTWNSGSLSSGVHTFPAVLQSDLYTLSSSVTVPSSTWPSETVTCNVAHPASSTKVDKKIVPRDCGCKPCICEPNEVELVFIFPPKPKDVLTITLTPKVTCVVVDISKDDPEVQFSWFVDDVEVHTAQTQPREEQTNSTFRSVSELPIMHQDWLNGKEFKCRVNSAAFPAPIEKTISKTKGRPKAPQVYTIPPPKEQMAKDKVSLTCMITDFFPEDITVEWQWNGQPAENYKNTQPIMDTDGSYFVYSKLNVQKSNWEAGNTFTCSVLHEGLHNHHTEKSLSHSPGK
light: not shown
notes: mouse IgG1 CH variant; copies: 2 + 2
B2: H237-MB765/MRAL-k0 (antibody, mouse IgG1, kappa)
heavy: B1 heavy with T292F, N320L
light: not shown
notes: as for B1
B3: H237-MB767/MRAL-k0 (antibody, mouse IgG1, kappa)
heavy: B1 heavy with T292F, A326G
light: not shown
notes: as for B1
B4: H237-MB768/MRAL-k0 (antibody, mouse IgG1, kappa)
heavy: B1 heavy with T292F, A326Q
light: not shown
notes: as for B1
B5: H237-MB769/MRAL-k0 (antibody, mouse IgG1, kappa)
heavy: B1 heavy with T292F, P327D
light: not shown
notes: as for B1
B6: H237-MB772/MRAL-k0 (antibody, mouse IgG1, kappa)
heavy: B1 heavy with T292F, E329N
light: not shown
notes: as for B1
B7: H237-MB778/MRAL-k0 (antibody, mouse IgG1, kappa)
heavy: B1 heavy with T292F, S333K
light: not shown
notes: as for B1
B8: H237-MB781/MRAL-k0 (antibody, mouse IgG1, kappa)
heavy: B1 heavy with T292F, A326K
light: not shown
notes: as for B1
B9: H237-MB793/MRAL-k0 (antibody, mouse IgG1, kappa)
heavy: B1 heavy with E229Q, L235I, T292F
light: not shown
notes: as for B1
B10: H237-MB830/MRAL-k0 (antibody, mouse IgG1, kappa)
heavy: B1 heavy with T292F, P327F, E329Y
light: not shown
notes: as for B1
B11: H237-MB832/MRAL-k0 (antibody, mouse IgG1, kappa)
heavy: B1 heavy with T292F, P327Y, E329Y
light: not shown
notes: as for B1
B12: H237-MB883/MRAL-k0 (antibody, mouse IgG1, kappa)
heavy: B1 heavy with N231A, V233E, E234S, T292F
light: not shown
notes: as for B1
B13: H237-MB884/MRAL-k0 (antibody, mouse IgG1, kappa)
heavy: B1 heavy with V233E, E234S, T292F
light: not shown
notes: as for B1
B14: H237-MB885/MRAL-k0 (antibody, mouse IgG1, kappa)
heavy: B1 heavy with N231A, V233E, L235S, T292F
light: not shown
notes: as for B1
B15: H237-MB886/MRAL-k0 (antibody, mouse IgG1, kappa)
heavy: B1 heavy with V233E, L235S, T292F
light: not shown
notes: as for B1
B16: H237-MB390/MRAL-k0 (antibody, mouse IgG1, kappa)
heavy: B1 heavy with L235D, T292F
light: not shown
notes: Template of the MB390 variants; copies: 2 + 2
B17: H237-MB397/MRAL-k0 (antibody, mouse IgG1, kappa)
heavy: B1 heavy with P230T, N231Y, L235D, T292F
light: not shown
notes: Template of the MB397 variants; copies: 2 + 2
B18: H237-MB439/MRAL-k0 (antibody, mouse IgG1, kappa)
heavy: B1 heavy with P230T, N231Y, L235D, S263E, T292F
light: not shown
notes: copies: 2 + 2
B19: H237-MB440/MRAL-k0 (antibody, mouse IgG1, kappa)
heavy: B1 heavy with P230T, N231Y, L235D, P267L, T292F
light: not shown
notes: copies: 2 + 2
B20: H237-MB441/MRAL-k0 (antibody, mouse IgG1, kappa)
heavy: B1 heavy with P230T, N231Y, L235D, T292F, A326K
light: not shown
notes: copies: 2 + 2
B21: H237-MB442/MRAL-k0 (antibody, mouse IgG1, kappa)
heavy: B1 heavy with P230T, N231Y, L235D, T292F, K330R
light: not shown
notes: copies: 2 + 2
B22: H237-MB443/MRAL-k0 (antibody, mouse IgG1, kappa)
heavy: B1 heavy with P230T, N231Y, L235D, T292E
light: not shown
notes: copies: 2 + 2
B23: H237-MB444/MRAL-k0 (antibody, mouse IgG1, kappa)
heavy: B1 heavy with P230T, N231Y, L235D, T292N
light: not shown
notes: copies: 2 + 2
B24: H237-MB445/MRAL-k0 (antibody, mouse IgG1, kappa)
heavy: B1 heavy with P230T, N231Y, L235D
light: not shown
notes: copies: 2 + 2
B25: H237-MB446/MRAL-k0 (antibody, mouse IgG1, kappa)
heavy: B1 heavy with P230T, N231Y, L235D, T292F, S294L
light: not shown
notes: copies: 2 + 2
B26: H237-MB447/MRAL-k0 (antibody, mouse IgG1, kappa)
heavy: B1 heavy with P230T, N231Y, L235D, T292F, S294M
light: not shown
notes: copies: 2 + 2

Target: T1, mouse FcγRII
Assay: SPR (Biacore), antibody captured on Protein L, mFcγR as analyte

Binder	Kd [nM]	relative mFcγRII-binding activity (mIgG1 = 1) [fold]
B1	84.9	2.9
B2	39.6	6.23
B3	117	2.1
B4	38.9	6.34
B5	63.2	3.9
B6	60.5	4.07
B7	34.2	7.21
B8	40.5	6.08
B9	179	1.37
B10	43.6	4.78
B11	40.4	5.16
B12	164	2.21
B13	148	2.46
B14	111	3.29
B15	246	1.47

Target: T2, mouse FcγRIII
Assay: as above

Binder	Kd [nM]	relative mFcγRIII-binding activity (mIgG1 = 1) [fold]
B1	5150	0.08
B2	2560	0.15
B3	8790	0.04
B4	2030	0.2
B5	4380	0.09
B6	3890	0.1
B7	2540	0.16
B8	2120	0.19
B9	5500	0.07
B10	3380	0.1
B11	3050	0.12
B12	4960	0.11
B13	5910	0.09
B14	4350	0.13
B15	7220	0.08

Target: T3, mouse FcγRII extracellular domain, …
Assay: SPR Biacore T200, KD ratio
Source text: (§1) The antibody H chain variable region used was the variable region H237 (SEQ ID NO: 1) of the H chain VH3-IgG1 of the anti-IL-6 receptor antibody Fv4-IgG1 described in WO2009/125825. The antibody L chain commonly used was the L chain MRAL-k0 (SEQ ID NO: 2) of the anti-IL-6 receptor antibody tocilizumab. […] The resulting variant groups were designated as MB397 variants and MB390 variants, respectively. These variants were expressed and purified by the method of Reference Example 1 and evaluated for their binding to mFcγRII and mFcγRIII by the method of Reference Example 2 using Biacore T200.
(§2) Each altered antibody was analyzed for its interaction with each Fcγ receptor prepared above using Biacore T100 (GE Healthcare Japan Corp.), Biacore T200 (GE Healthcare Japan Corp.), Biacore A100, or Biacore 4000. The running buffer used was HBS-EP+ (GE Healthcare Japan Corp.). The assay temperature was set to 25° C. The sensor chips used were chips prepared by immobilizing Protein L (ACTIGEN or BioVision) onto Series S Sensor Chip CM5 (GE Healthcare Japan Corp.) or Series S Sensor Chip CM4 (GE Healthcare Japan Corp.) by the amine coupling method.
(§3) In order to calculate the KD value of each altered antibody for FcγR, kinetic analysis was conducted according to the following method: first, the antibody of interest was captured onto any of these chips and allowed to interact with mFcγR diluted with a running buffer. For the obtained sensorgram, the assay results were globally fit into the 1:1 Langmuir binding model using Biacore Evaluation Software to calculate an association rate constant ka (L/mol/s) and a dissociation rate constant kd (1/s). From these values, the dissociation constant KD (mol/L) was calculated.

Binder	relative mFcγRII-binding activity (MB390 = 1) [fold]	relative mFcγRII-binding activity (mIgG1 = 1) [fold]	relative mFcγRII-binding activity (MB397 = 1) [fold]
B16	1	522	–
B17	–	555	1
B18	–	39.5	0.07
B19	–	120	0.22
B20	–	39.7	0.07
B21	–	884	1.6
B22	–	243	0.44
B23	–	231	0.42
B24	–	220	0.4
B25	–	1360	2.45
B26	–	608	1.1

Target: T4, mouse FcγRIII extracellular domain, …
Assay: SPR Biacore T200, KD ratio
Source text: as §1, §2, §3

Binder	relative mFcγRIII-binding activity (MB390 = 1) [fold]	relative mFcγRIII-binding activity (mIgG1 = 1) [fold]	relative mFcγRIII-binding activity (MB397 = 1) [fold]
B16	1	11.9	–
B17	–	19.3	1
B18	–	4.5	0.23
B19	–	6.9	0.36
B20	–	4.1	0.21
B21	–	26.9	1.39
B22	–	15.3	0.79
B23	–	12.9	0.67
B24	–	13.2	0.68
B25	–	63.7	3.3
B26	–	31.4	1.63

— patent publication US20150203577A1 (Chugai, published 2015)
